In patent US20030036166A1:

Tests used:
[1] = molecular target: T1, ErbB4.Fc (UniProt Q15303); test: displacement of ^125I-NRG3^EGF.Fc (80 pM) from immobilized ErbB4.Fc by NRG1^EGF, 96-well plate, nonlinear regression
T1 sequence (looked up): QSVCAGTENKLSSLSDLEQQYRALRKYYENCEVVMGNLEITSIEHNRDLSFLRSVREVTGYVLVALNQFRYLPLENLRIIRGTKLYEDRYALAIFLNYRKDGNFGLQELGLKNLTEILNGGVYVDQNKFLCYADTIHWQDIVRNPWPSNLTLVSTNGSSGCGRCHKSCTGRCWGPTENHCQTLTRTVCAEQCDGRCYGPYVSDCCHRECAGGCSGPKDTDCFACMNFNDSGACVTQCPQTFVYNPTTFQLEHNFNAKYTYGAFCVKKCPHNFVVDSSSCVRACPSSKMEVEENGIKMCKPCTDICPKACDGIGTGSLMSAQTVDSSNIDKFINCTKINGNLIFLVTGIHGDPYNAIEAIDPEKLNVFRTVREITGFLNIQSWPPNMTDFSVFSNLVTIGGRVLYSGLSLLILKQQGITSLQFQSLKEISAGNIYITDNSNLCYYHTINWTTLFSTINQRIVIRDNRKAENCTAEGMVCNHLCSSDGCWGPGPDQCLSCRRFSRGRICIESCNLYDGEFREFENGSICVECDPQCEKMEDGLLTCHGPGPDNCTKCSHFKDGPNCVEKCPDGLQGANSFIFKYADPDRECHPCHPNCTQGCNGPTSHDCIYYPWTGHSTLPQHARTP

[2] = molecular target: T1, ErbB4.Fc; test: displacement of ^125I-NRG3^EGF.Fc (80 pM) from immobilized ErbB4.Fc by unlabeled NRG3^EGF.Fc, 96-well plate, nonlinear regression

Sequence of NRG3^EGF.Fc (O35181 284-344 limits assumed): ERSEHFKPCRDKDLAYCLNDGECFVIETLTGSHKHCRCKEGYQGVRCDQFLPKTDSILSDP

Substance | Ki [1] | Ki [2]
NRG1^EGF (EGF-like domain of heregulin-β1, rHRGβ1 177-244) (from UniProt Q02297 177-244) (ligand) | 1 nM | 
NRG3^EGF.Fc (from UniProt O35181 284-344) (Fc fusion) |  | 9 nM
